From patent publication US10106582B2, “Complex-formation-modulating agents and uses therefor” (Factor Therapeutics Limited, priority 2012, dated 2018)
Where no end group is shown, it is not given here.

Experiments:
[1] = biological target: T1, IGF-II (Homo sapiens, UniProt P01344); assay: VN-peptide array: binding of IGF-II to immobilized overlapping 16-mer VN peptides; conditions: relative spot intensity on VN-peptide array after IGF-II incubation, vs average intensity of negative controls (TotalLab)
T1 construct: purchased GroPep
Text: (§1) The inventors designed small-molecule VN-peptides that could potentially disrupt the formation of the IGF-I:IGFBP:VN trimeric or the IGF-II:VN dimeric complexes by binding to the IGFBPs and/or IGF-II and preventing their association with VN within the complex. To design peptides, the binding sites of IGFBP-3/-5 and IGF-II on VN were first determined using VN-peptide arrays. The entire VN protein sequence, excluding the signal peptide (residues 1-19), was divided into overlapping 16-mer peptides with 3AA frameshift/offset (for peptide sequences refer to Table 6) and immobilized onto cellulose membranes (peptide spotting was outsourced to PepMetric Technologies Inc). For a schematic of the arrangement of VN peptides and controls refer to FIG. 2. The resultant peptide arrays were incubated either with IGFBP-3, IGFBP-5 or IGF-II ligands, probed with the respective antibodies, the membranes developed using ECL, and imaged using the ChemiDoc™ XRS system (BioRad). The spots on the membrane were analysed using TotalLab array quantification software (TotalLab Ltd, Newcastle, England) identifying positive peptide spots by comparing each spot to the combined intensities of the negative controls.
(§2) The entire VN protein sequence, excluding the signal peptide (residues 1-19), was divided into overlapping 16-mer peptides with 3 amino acid (AA) frameshift/offset. This yielded 148 overlapping peptides covering the entire VN sequence (residues 20-478) (Table 6) with a resolution of 3 AA. Peptide synthesis and spotting onto a cellulose membrane were outsourced to PepMetric Technologies Inc. (Richmond, BC, Canada). For a diagrammatic illustration of the strategy used to divide an example amino acid sequence into peptides and to spot them onto the membrane, please refer to http://www.pepmetric.com/html/Pep-Overlap.html. The VN-overlapping peptides were generated using FMOC (9-fluorenylmethoxycarbonyl) Solid-Phase SPOT synthesis onto PEG-grafted amine-functionalized cellulose membrane (Whatman® 540 filter paper). The peptides were spotted onto the cellulose membrane in a 10×16 grid with each peptide being 10˜50 nM in concentration with >70% purity. Finally, these membranes were acetylated in order to cap the free ends of the spotted peptides preventing them from degradation during shipping and storage.
(§3) Along with the VN-peptides these membranes were also spotted with a positive control (i.e., universal binding peptides tested by the manufacturer to be positive for antibodies from goat, mouse, rat and chicken) and a negative control (ie. non-binding peptides as well as BSA) controls. For a schematic of the arrangement of VN-peptides and controls refer to FIG. 2 and for the sequence of each peptide corresponding to the grid number refer to Table 6. Four such replicate membranes were prepared and stored at room temperature in a clip sealed plastic bag. Long-term storage was at −20° C.
(§4) Methanol or ethanol was used to enhance the rehydration of peptide spots that might be hydrophobic. The peptides spotted onto the membranes were activated by incubating in 3 mL of 70% ethanol for five mins. The membranes were subsequently washed three times, 10 minutes each, in 10 mL TBS (Tris Buffered Saline; 8 g NaCl, 0.2 g KCl and 6.1 g Tris Base into 1000 mL of milliQ water, pH 7) with gentle rocking. Membrane blocking was performed by incubating in 10 mL casein-based membrane blocking buffer (MBS; Sigma-Aldrich) overnight at 4° C. The following day, the membranes were washed twice, 10 minutes each, in 10 mL TBS-T (TBS+0.05% Tween-20; pH 7).
(§5) Ligands used to test binding to VN-peptides were IGFBP-3, IGFBP-5 and IGF-II. For ligand binding, four separate solutions of 1 μg/mL ligand in 10 mL MBS buffer were prepared and each membrane was incubated in one of the four ligand solutions overnight at 4° C., with gentle rocking. […] The following day, the membranes were washed three times, 10 minutes each, in 10 mL TBS-T. […]

[2] = biological target: T2, IGFBP-3 (Homo sapiens, UniProt P17936); assay: VN-peptide array: binding of IGFBP-3 to immobilized overlapping 16-mer VN peptides; conditions: relative spot intensity on VN-peptide array after IGFBP-3 incubation, vs average intensity of negative controls (TotalLab)
T2 construct: purchased GroPep
Text: as §1, §2, §3, §4, §5

T2 sequence (P17936 28-291): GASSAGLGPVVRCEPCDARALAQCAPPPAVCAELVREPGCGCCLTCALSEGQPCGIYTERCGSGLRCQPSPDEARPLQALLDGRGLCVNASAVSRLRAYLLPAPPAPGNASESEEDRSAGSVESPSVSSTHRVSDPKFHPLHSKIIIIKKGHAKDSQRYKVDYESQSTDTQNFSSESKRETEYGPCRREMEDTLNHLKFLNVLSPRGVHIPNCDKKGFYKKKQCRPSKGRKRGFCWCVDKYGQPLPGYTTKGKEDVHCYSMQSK
T1 sequence (P01344 25-91 limits assumed): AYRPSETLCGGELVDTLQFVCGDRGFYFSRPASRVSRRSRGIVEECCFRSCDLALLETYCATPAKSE

Row | Sequence | Intensity (against −ve control), IGFII [1] | Intensity (against −ve control), BP3 [2]
1 | DELCSYYQSCCTDYTA (not fully specified (N-terminus); cysteine pairing not given here) [Peptide 1B] | 12-IGFII fold-change | 
2 | DSWEDIFELLFWGRTS (not fully specified (N-terminus)) [Peptide 5D] |  | 2.5-BP3 fold-change
3 | FAMMQRDSWEDIFELL (not fully specified (N-terminus)) [Peptide 5B] |  | 4.5-BP3 fold-change
4 | FEHFAMMQRDSWEDIF (not fully specified (N-terminus)) [Peptide 5A] |  | 1.5-BP3 fold-change
5 | KGKQYWEYQFQHQPSQ (not fully specified (N-terminus)) [Peptide 4A] |  | 6-BP3 fold-change
6 | LFSSEESNLGANNYDD (not fully specified (N-terminus)) [Peptide 7A] | 17-IGF-II fold-change | 
7 | MQRDSWEDIFELLFWG (not fully specified (N-terminus)) [Peptide 5C] |  | 4.5-BP3 fold-change
8 | QYWEYQFQHQPSQEEC (not fully specified (N-terminus)) [Peptide 4B] |  | 12-BP3 fold-change
9 | SEESNLGANNYDDYRM (not fully specified (N-terminus)) [Peptide 7B] | 18-IGF-II fold-change | 
10 | SNLGANNYDDYRMDWL (not fully specified (N-terminus)) [Peptide 7C] | 12-IGF-II fold-change | 
11 | TRQPQFISRDWHGVPG (not fully specified (N-terminus)) [Peptide 6C] | 1.5-IGFII fold-change | 
